Data set [1] concerns the target T1, OxyS (Mycobacterium tuberculosis) (UniProt L7N677).
T1 sequence: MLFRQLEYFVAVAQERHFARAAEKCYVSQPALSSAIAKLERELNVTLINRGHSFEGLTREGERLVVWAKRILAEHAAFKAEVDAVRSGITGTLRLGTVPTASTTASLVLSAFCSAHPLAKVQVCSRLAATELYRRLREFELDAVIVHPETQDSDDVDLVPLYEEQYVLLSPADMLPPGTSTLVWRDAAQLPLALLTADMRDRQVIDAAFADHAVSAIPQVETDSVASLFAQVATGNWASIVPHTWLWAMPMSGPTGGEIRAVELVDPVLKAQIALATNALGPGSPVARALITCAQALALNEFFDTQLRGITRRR
In words: EMSA. Conditions: 20 mM Tris-HCl pH 7.5, 100 mM NaCl, 2 mM EDTA, room temperature 20 min. (Mobility shift assays separate free from complexed probe on a gel.)

The target of data set [2] is T1, OxyS (Mycobacterium tuberculosis). In words: competition. Conditions: 20 mM Tris-HCl pH 7.5, 100 mM NaCl, 2 mM EDTA, room temperature 20 min.
For a further data set, the target named is T2, OxyS (Mycobacterium tuberculosis, UniProt L7N677 1-314).
T2 sequence: T1 sequence
In words: EMSA; 0-300 nM OxyS; 20 mM Tris-HCl pH 7.5, 100 mM NaCl, 2 mM EDTA, room temperature 20 min; […]. Conditions: protein: recombinant; tags: 6xHis (pET28a); chain copies: 4; label: 5'-FITC on forward strand; blunt.

Consider “CCGATGTCGACTGTGCTGTTGGCGAGGCACCCTGTCTGACGGCCTCGGACCATAACGGCTTCCTGTTGGACGAGGCGGAGGTCATCTACTGGGGTCTATGTCCTGATTGTTCGATATCCGACACTTCGCGATCACATCCGTGATCACAGCCCGATAACACCAACTCCTGGAAGGAATGCT (double strand) [katGp2]”, for which the binding entry in data set [1] and in data set [2] was “binds” each time.

As for “TCGACATCGGCGATAACCCCGCAAGACCGGCAGACGATGTGATGGTGGTTGTCGCCGACCCTGGACTCGTAGCGCGCGACGGAGCCCGAGGGTTGGATCTTTCGCACCAAGCCCGCGGCGGTCAGGGCATGCAGCACGTCGTACACGGCTTGCCGGGATACGTCGGGCAGCGCAAAACGC (double strand) [katGp1]”, the binding result in data set [1] and in data set [2] was “no binding” each time.

B1: OxyS box1 (dsDNA)
DNA 1: TGTCTGACGGCCTCGGACCAT
DNA 2: ATGGTCCGAGGCCGTCAGACA
Take B1: in the data set with OxyS, the binding result is listed as “binds”.

B2: OxyS box1mut (dsDNA)
DNA 1: TGTCCCACGGCCTCGCCCCAT
DNA 2: ATGGGGCGAGGCCGTGGGACA
Turning to B2, the binding result in the data set with OxyS is “no binding”.

Values taken from paper PMC3260234.
